In patent publication US9618524B2, “Method, composition, isolation and identification of a plaque particle and related biomarker” (Plaxgen Inc., priority 2012, dated 2017):

B1: Phosphatidylinositol-glycan-specific phospholipase D (protein)
chain: CGLSTHVEIGHRALEFLQLHNGRVNYRELLLEHQDAYQAGIVFPDCFYPSICKGGKFHDVSESTHWTPFLNASVHYIRENYPLPWEKDTEKLVAFLFGITSHMAADVSWHSLGLEQGFLRTMGAIDFHGSYSEAHSAGDFGGDVLSQFEFNFNYLARRWYVPVKDLLGIYEKLYGRKVITENVIVDCSHIQFLEMYGEMLAVSKLYPTYSTKSPFLVEQFQEYFLGGLDDMAFWSTNIYHLTSFMLENGTSDCNLPENPLFIACGGQQNHTQGSKMQKNDFHRNLTTSLTESVDRNINYTERGVFFSVNSWTPDSMSFIYKALERNIRTMFIGGSQLSQKHVSSPLASYFLSFPYARLGWAMTSADLNQDGHGDLVVGAPGYSRPGHIHIGRVYLIYGNDLGLPPVDLDLDKEAHRILEGFQPSGRFGSALAVLDFNVDGVPDLAVGAPSVGSEQLTYKGAVYVYFGSKQGGMSSSPNITISCQDIYCNLGWTLLAADVNGDSEPDLVIGSPFAPGGGKQKGIVAAFYSGPSLSDKEKLNVEAANWTVRGEEDFSWFGYSLHGVTVDNRTLLLVGSPTWKNASRLGHLLHIRDEKKSLGRVYGYFPPNGQSWFTISGDKAMGKLGTSLSSGHVLMNGTLKQVLLVGAPTYDDVSKVAFLTVTLHQGGATRMYALTSDAQPLLLSTFSGDRRFSRFGGVLHLSDLDDDGLDEIIMAAPLRIADVTSGLIGGEDGRVYVYNGKETTLGDMTGKCKSWITPCPEEKAQYVLISPEASSRFGSSLITVRSKAKNQVVIAAGRSSLGARLSGALHVYSLGSD
B2: Isoform 2 of Ficolin-3 (protein)
chain: QEHPSCPGPRELEASKVVLLPSCPGAPGSPGEKGAPGPQGPPGPPGKMGPKGEPGPRNCRELLSQGATLSGWYHLCLPEGRALPVFCDMDTEGGGWLVFQRRQDGSVDFFRSWSSYRAGFGNQESEFWLGNENLHQLTLQGNWELRVELEDFNGNRTFAHYATFRLLGEVDHYQLALGKFSEGTAGDSLSLHSGRPFTTYDADHDSSNSNCAVIVHGAWWYASCYRSNLNGRYAVSEAAAHKYGIDWASGRGVGHPYRRVRMMLR
B3: Tetranectin (protein)
chain: EPPTQKPKKIVNAKKDVVNTKMFEELKSRLDTLAQEVALLKEQQALQTVCLKGTKVHMKCFLAFTQTKTFHEASEDCISRGGTLGTPQTGSENDALYEYLRQSVGNEAEIWLGLNDMAAEGTWVDMTGARIAYKNWETEITAQPDGGKTENCAVLSGAANGKWFDKRCRDQLPYICQFGIV
B4: Platelet factor 4 variant (protein)
chain: FARAEAEEDGDLQCLCVKTTSQVRPRHITSLEVIKAGPHCPTAQLIATLKNGRKICLDLQALLYKKIIKEHLES

Key:
Assay in all cases: Mass spectroscopy proteomics, semi-quantitative binding affinity of serum proteins (plaqueproteome, Table 2)
Conditions in all cases: higher number = stronger affinity
[1] = biological target: T1, Abeta-42 plaque particles (Homo sapiens, UniProt P05067)
T1 construct: Abeta 1-42
Procedure, shortened: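 AD patient serum or plasma (50% in PBS) was incubated with Abeta-42 aggregates (30 μg) for 1 h at 37 °C, then stained with Thioflavin S for 30 min. Labeled particles were FACS-sorted, trypsin/Lys-C digested overnight and analyzed by MS/MS. Sequest searched human UniProt; Scaffold/Protein Prophet validated the identifications.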

[2] = biological target: T2, alpha-synuclein plaque particles (Homo sapiens, UniProt P37840)
T2 construct: 140 amino acids polypeptide
Procedure, shortened: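 AD-subject plasma or serum (800 μL of 50%) mixed with 30 μg preformed alpha-synuclein aggregates for 1 h at 37 °C; Thioflavin S-positive particles isolated by flow sorting. After reduction, acrylamide alkylation and overnight tryptic digestion, serum proteins identified by MS/MS with Sequest and Scaffold.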

[3] = tested on: Low density cholesterol (Chl small) plaque particles; set-up: species or system human
Procedure, shortened: (§1)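 Read-out is MS/MS protein identification (Sequest, strict trypsin, 20 ppm parent tolerance; Scaffold probabilities) of serum proteins bound to flow-sorted cholesterol plaque particles. These particles formed when 50% atherosclerotic serum was incubated with 30 μg cholesterol aggregates for 1 hr at 37° C.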

[4] = tested on: High Density cholesterol (Chl Large) plaque particles; set-up: species or system human
Procedure, shortened: as §1

[5] = tested on: Tau plaque particles; set-up: species or system human
Procedure, shortened: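 Serum or plasma proteins captured on Thioflavin S-labelled Tau plaque particles (Tau-74, Tau-275 oligomers preformed in PBS at 37° C for 2 h; 1 h co-incubation at 37° C) were isolated by FACS sorting, then tryptically digested and identified by MS/MS (Sequest, human UniProt, strict trypsin).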

Molecule	Semi-quantitative analysis of proteins binding to different plaque particles: Abeta-42 [1]	Semi-quantitative analysis of proteins binding to different plaque particles: Synuclein [2]	Semi-quantitative analysis of proteins binding to different plaque particles: Chl small [3]	Semi-quantitative analysis of proteins binding to different plaque particles: Chl Large [4]	Semi-quantitative analysis of proteins binding to different plaque particles: Tau [5]
B1	0	0	1	1	2
B2	0	1	0	0	0
B3	0	0	1	0	0
B4	0	1	0	1	0
